The source of these data is IntAct's records for PubMed 12502741.

The assay has as its target rb_human RB1 (UniProt P06400).

rb_human RB1, sequence (P06400 whole entry): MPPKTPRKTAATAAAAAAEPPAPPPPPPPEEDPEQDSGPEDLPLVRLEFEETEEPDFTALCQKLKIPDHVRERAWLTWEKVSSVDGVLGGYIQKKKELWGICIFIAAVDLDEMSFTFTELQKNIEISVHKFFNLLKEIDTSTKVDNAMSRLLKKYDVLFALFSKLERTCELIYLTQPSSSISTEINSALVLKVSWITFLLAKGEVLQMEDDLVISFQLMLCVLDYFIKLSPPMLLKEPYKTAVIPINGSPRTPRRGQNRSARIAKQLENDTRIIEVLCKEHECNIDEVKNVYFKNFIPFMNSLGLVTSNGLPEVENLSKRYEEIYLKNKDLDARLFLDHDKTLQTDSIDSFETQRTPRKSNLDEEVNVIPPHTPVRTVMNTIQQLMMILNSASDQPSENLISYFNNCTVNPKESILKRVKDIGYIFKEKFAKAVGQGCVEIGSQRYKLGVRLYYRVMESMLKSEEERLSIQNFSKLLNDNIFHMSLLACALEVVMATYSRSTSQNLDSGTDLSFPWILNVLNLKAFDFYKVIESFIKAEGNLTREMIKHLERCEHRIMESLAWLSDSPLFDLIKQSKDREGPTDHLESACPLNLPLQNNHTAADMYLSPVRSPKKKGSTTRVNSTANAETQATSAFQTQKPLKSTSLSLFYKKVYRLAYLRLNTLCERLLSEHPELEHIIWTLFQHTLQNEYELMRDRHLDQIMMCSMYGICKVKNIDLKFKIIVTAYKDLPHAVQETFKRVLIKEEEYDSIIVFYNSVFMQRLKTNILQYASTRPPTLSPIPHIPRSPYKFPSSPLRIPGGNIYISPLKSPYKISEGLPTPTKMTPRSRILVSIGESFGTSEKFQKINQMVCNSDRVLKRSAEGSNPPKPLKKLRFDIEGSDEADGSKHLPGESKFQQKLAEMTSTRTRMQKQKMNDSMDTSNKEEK
Transcription factor E2F2 (Homo sapiens), Q14209 E420A, sequence (Q14209 whole entry E420A): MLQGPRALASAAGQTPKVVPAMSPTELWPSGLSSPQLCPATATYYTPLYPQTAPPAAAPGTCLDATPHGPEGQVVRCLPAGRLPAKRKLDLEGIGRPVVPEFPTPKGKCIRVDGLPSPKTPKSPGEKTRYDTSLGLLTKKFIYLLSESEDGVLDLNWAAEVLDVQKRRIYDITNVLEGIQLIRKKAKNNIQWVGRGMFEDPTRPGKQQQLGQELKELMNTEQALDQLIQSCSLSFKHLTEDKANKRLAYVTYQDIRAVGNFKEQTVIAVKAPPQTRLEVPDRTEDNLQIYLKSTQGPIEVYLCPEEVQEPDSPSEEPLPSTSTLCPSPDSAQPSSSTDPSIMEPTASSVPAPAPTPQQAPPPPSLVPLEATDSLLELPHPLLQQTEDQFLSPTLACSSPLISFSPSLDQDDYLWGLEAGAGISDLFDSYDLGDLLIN
Transcription factor E2F2 (Homo sapiens), Q14209 G421S, sequence (Q14209 whole entry G421S): as the sequence (Q14209 whole entry E420A) above, with A420E, G421S counted along it

“Transcription factor E2F2 (Homo sapiens), Q14209 G421S”: the “effect of a mutation on the interaction” value was “decreasing interaction strength”.

For “Transcription factor E2F2 (Homo sapiens), Q14209 E420A”, the “effect of a mutation on the interaction” value is given as “decreasing interaction strength”.
